Source: patent US9156883B2, “Binding molecules for human factor VIII and factor VIII-like proteins” (DYAX CORP., priority 1999, dated 2015)
Positions of bridges follow the written chain, without caps; N, C: chain ends. No end group written: not given here. *: point of attachment. NHNH2 = NN*

Target: T1, native human factor VIII (nhfVIII) (Homo sapiens, UniProt P00451)
T1 construct: native human factor VIII (nhfVIII); purchased American Diagnostica, Inc. (Greenwich, Conn.) #408 nat
T1 sequence (P00451 20-1332 limits assumed): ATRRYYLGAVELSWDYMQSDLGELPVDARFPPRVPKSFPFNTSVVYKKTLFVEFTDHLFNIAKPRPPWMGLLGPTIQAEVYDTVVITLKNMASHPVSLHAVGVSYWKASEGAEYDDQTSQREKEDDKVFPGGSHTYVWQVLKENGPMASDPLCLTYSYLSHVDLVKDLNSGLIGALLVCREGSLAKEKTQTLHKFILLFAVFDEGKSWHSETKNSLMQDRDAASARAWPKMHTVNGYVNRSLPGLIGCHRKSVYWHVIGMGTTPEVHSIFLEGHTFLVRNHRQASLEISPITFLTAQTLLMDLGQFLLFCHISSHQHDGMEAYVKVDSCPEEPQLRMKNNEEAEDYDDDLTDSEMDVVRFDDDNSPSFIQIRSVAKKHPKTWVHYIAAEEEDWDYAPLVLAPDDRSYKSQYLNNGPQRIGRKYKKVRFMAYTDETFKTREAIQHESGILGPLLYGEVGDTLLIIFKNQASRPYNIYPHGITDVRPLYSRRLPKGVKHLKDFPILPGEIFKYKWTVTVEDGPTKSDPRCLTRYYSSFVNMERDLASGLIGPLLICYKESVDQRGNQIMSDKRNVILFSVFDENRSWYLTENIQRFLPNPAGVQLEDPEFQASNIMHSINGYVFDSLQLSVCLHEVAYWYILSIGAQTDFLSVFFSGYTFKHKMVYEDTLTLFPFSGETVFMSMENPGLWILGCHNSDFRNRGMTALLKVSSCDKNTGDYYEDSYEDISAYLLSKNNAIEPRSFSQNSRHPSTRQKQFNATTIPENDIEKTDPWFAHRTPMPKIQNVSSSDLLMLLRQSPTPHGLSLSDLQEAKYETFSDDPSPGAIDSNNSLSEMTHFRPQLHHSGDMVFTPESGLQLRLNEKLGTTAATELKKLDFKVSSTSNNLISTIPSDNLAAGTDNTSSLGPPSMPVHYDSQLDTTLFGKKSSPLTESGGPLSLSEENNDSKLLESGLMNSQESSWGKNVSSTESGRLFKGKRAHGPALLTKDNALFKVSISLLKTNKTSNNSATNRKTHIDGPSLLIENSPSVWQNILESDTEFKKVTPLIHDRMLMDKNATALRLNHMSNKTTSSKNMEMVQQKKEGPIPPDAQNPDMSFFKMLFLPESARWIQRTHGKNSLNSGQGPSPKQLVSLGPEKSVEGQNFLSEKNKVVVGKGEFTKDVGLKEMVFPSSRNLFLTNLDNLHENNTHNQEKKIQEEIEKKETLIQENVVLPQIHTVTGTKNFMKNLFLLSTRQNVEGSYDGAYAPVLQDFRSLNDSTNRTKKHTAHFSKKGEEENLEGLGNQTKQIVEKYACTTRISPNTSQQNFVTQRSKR
T1 sequence (P00451 1668-2351 limits assumed): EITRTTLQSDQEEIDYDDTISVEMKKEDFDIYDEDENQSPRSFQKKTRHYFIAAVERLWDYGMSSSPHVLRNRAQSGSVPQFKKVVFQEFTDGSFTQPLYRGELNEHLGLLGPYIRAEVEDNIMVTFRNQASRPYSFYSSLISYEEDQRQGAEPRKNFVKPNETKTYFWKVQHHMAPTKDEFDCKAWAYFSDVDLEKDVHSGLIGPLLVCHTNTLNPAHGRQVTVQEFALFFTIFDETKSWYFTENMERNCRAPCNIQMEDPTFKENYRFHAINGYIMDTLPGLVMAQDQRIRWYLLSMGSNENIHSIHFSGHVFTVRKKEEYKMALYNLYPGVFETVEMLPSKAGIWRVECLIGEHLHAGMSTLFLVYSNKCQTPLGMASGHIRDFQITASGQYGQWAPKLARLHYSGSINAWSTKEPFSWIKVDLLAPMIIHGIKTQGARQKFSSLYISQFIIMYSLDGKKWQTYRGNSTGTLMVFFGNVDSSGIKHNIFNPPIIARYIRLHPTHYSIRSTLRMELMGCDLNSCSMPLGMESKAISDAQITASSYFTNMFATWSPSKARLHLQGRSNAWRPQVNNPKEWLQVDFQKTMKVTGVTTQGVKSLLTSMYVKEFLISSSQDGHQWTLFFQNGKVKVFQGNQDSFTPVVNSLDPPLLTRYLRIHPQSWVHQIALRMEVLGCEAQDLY
Test: Comparative batch binding and elution of nhfVIII with immobilized polypeptide ligands
Conditions: batch procedure
Method: For these experiments, nhfVIII was obtained from American Diagnostica, Inc. (Greenwich, Conn.; product #408 nat) in the form of a lyophilized powder containing stabilizing agents. The nhfVIII was reconstituted according to the manufacturer's instructions in a reconstituting buffer (72 mM NH4OAc, pH 6.3, 360 mM NaCl, 0.04% Tween 80 (Buffer 1).
A commercial ELISA kit (IMUBIND fVIII ELISA kit, Product #884, American, Inc., Greenwich, Conn.) developed to detect factor VIII was used according to the manufacturer's specifications in order to detect both the REFACTO® and the nhfVIII targets. The kit employs a sandwich ELISA assay in which the target is captured by an immobilized monoclonal antibody and the captured target is detected with a second monoclonal antibody-horseradish peroxidase (HRP) conjugate. Addition of the peroxidase substrate and its subsequent reaction with the HRP produces a blue color (detected at 630 nm) which changes to yellow (detected at 450 nm) on addition of the 0.5N sulfuric acid stop solution. Color response is calibrated with factor VIII standards provided by the manufacturer.
Following the pH 2 washes, the beads were washed once in PBS containing 0.05% azide and stored at 4° C.
A sample of nhfVIII was diluted to a final concentration of 100 U/ml by addition of 2.32 ml H2O, 180 μl 1M NH4OAc, pH 6.3 (to 72 mM), and 1 μl Tween 80 (to 0.04%). REFACTO® stock solution was diluted to 100 U/ml in a modified Buffer 1, in which the NaCl concentration was reduced from […] to 330 mM.
Immobilized peptides were tested for binding to nhFVIII in comparison with REFACTO®. […] Next, nhfVIII and REFACTO® solutions were mixed with regenerated affinity beads bearing the CS-454, CS-456, and CS-458 ligands in a comparative batch purification procedure.

With “AEGTGDHLCGAWFRPCDADPGPEGGGS-NHNH2 (disulfide 9-16 (inferred)) [CS-454]” the “binding and release of nhfVIII compared with a factor VIII-like polypeptide (in words)” value was “bind and release nhfVIII under similar conditions and with similar yields”.

With “AEGTGDFCWVFAFDHCHDPGPEGGGS-NHNH2 (disulfide 8-16 (inferred)) [CS-458]” the “binding and release of nhfVIII compared with a factor VIII-like polypeptide (in words)” value was “bind and release nhfVIII under similar conditions and with similar yields”.

In the case of “AEGTGDFGCSWLFPCPFDPGPEGGGS-NHNH2 (disulfide 9-15 (inferred)) [CS-456]”, the “binding and release of nhfVIII compared with a factor VIII-like polypeptide (in words)” value is reported as “bind and release nhfVIII under similar conditions and with similar yields”.
